The values below come from patent US20230051266A1 (ABL BIO, published 2023).

The target in assay [1] is T1, Recombinant Human BCMA (human, UniProt Q02223 1-54).
T1 construct: also called hBCMA; recombinant BCMA
T1 sequence: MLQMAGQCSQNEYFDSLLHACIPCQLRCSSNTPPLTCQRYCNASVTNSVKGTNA
Put plainly: single clone phage ELISA on coated recombinant BCMA. The method, then:
Specifically, the phage pool obtained according to Example 1-2 was sequentially diluted, and cultured on a solid medium containing LB-tetracycline/cabenicillin to obtain single colonies. Each colony was cultured on a 96-deep well plate so that OD600 was from 0.5 to 0.7. 20 MOI of helper phage was added to each well, and reacted at 37° C. for 1 hour. Thereafter, kanamycin was added to each well and incubated overnight at 30° C. On the next day, the culture was centrifuged and the supernatant thereof was collected, and then, ELISA was performed to select BCMA-specific phages. Each well of the ELISA plate was coated with 100 ng of recombinant BCMA, and then incubated with PBS-B (3% BSA containing PBS) to prevent nonspecific binding. Thereafter, the plate was washed with PBS. The prepared single clone phage was added to each well and incubated at 37° C. for 1 hour, and the plate was washed three times with PBS-T. For detecting the bounded phages, horseradish peroxidase (HRP) conjugated anti-hemagglutinin (HA) antibody was added to each well. After washing step with PBS-T, tetramethylbenzidine (TMB, Sigma, T0440) was added. Clones, which are with an absorbance that is 0.5 or more at the wavelength of 450 nm and also the absorbance is at least 5 times greater than that of the control with anti-HA HRP alone, were selected. Four antibody clones (B58, 5B5, 5D5, and 5A6), which specifically bind to human BCMA, were selected.

A further assay has as its target T2, human BCMA-Fc protein (human, UniProt Q02223 1-54).
T2 construct: Coated antigen of the DACE
T2 sequence: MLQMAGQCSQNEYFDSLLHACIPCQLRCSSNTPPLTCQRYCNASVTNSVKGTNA
Put plainly: DACE (dual antigen captured ELISA): plate coated with human BCMA-Fc, bispecific antibody titrated, then human 4-1BB-His; Abs at 450 nm.

Assay [2] has as its target human 4-1BB on GloResponse NFkB-luc2/4-1BB Jurkat cells (human, UniProt Q07011 24-255). Put plainly: cell-based or functional assay.
For assay [3], the target named is T1, Recombinant Human BCMA. Put plainly: SPR, bispecific antibody on Protein A chip, antigen flowed. The method, then: In the SPR experiment, the anti-BCMA/anti-4-1BB bispecific antibodies obtained in Example 3-5 were individually captured on flow-cells 2, 3 and 4, keeping the flow-cell 1 as reference, on a Protein A Chip on which an anti-BCMA/anti-4-1BB Bispecific antibody (5D5M4(NA)×41B01 M12 or 5A6M6(NA)×41B01 M12) had been immobilized by amine coupling. Recombinant Human BCMA or Human 4-1BB protein was flowed across the chip at concentration range from 100 nM to 6.25 nM for human BCMA or 250 nM to 15.625 nM for human 4-1BB and 0.78 nM at […] for 300 seconds, followed by a dissociation phase of 400 seconds. Regeneration was performed with 10 mM Glycine-HCl (pH 2.0).

Assay [4] concerns the target T3, Recombinant Human 4-1BB protein (human, UniProt Q07011 24-186).
T3 construct: also called h4-1BB; 4-1BB antigen
Nature of the assay: phage ELISA on 4-1BB antigen-coated plates.

Sequence of human 4-1BB on GloResponse NFkB-luc2/4-1BB Jurkat cells (Q07011 24-255): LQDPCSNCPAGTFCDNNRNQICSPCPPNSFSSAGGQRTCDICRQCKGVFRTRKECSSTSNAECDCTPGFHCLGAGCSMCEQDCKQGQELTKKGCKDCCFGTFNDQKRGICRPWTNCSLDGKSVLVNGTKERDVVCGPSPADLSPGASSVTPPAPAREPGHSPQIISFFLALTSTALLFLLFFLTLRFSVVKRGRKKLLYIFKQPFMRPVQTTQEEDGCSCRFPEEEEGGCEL

B1: 5B5 (phage antibody clone) (scFv, V domains shown)
VH: EVQLLESGGGLVQPGGSLRLSCAASGFTFSGHYWSWVRQAPGKGLEWVSTVSGSGGDTFYADSVKGRFTISRDNSKNTLYLQMNSLRAEDTAVYYCARGHSVMDVWGQGTLVTVSS
VL: EIVLTQSPGTLSLSPGERATLSCRASQGIDSYVAWYQQKPGQAPRLLIYDASLRATGIPDRFSGSGSGTDFTLTISRLEPEDFAVYYCQQYNSWPITFGQGTKLEIK
Regarding B1, in the assay with Recombinant Human BCMA [1], the binding result was “binds”.

B2: 5D5 (phage antibody clone) (scFv, V domains shown)
VH: EVQLLESGGGLVQPGGSLRLSCAASGFTFSDYGLSWVRQAPGKGLEWVSLIDSSGSSTFYADSVKGRFTISRDNSKNTLYLQMNSLRAEDTAVYYCAKEHGLFDSWGQGTLVTVSS
VL: EIVLTQSPGTLSLSPGERATLSCKASQDIDDDINWYQQKPGQAPRLLIYDASLRATGIPDRFSGSGSGTDFTLTISRLEPEDFAVYYCQQSLRTPITFGQGTKLEIK
Take B2: the binding result in the assay with Recombinant Human BCMA [1] is listed as “binds”.

B3: 5A6M6(NA)x41B01 M12 (bispecific antibody, human IgG1, lambda, N297A)
heavy: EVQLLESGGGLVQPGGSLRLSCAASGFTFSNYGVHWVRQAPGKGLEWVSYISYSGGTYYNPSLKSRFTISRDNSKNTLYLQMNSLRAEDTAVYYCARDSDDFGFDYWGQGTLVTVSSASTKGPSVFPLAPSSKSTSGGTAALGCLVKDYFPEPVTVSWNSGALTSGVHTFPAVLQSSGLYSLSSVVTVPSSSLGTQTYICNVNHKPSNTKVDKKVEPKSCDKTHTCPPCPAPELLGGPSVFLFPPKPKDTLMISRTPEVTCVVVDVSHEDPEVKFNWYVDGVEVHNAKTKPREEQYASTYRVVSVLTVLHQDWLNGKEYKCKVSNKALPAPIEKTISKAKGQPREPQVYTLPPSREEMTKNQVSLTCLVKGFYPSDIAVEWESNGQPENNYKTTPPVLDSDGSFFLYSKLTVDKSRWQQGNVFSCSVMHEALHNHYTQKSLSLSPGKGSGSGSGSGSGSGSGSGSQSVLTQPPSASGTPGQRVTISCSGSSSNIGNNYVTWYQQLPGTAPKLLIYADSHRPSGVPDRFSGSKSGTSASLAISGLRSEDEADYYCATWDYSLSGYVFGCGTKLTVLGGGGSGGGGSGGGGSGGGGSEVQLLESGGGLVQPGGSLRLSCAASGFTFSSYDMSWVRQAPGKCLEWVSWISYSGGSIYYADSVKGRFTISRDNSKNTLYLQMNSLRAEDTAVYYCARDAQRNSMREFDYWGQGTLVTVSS
light: QSVLTQPPSASGTPGQRVTISCQGESLRSYYVNWYQQLPGTAPKLLIYDHSKRPTGVPDRFSGSKSGTSASLAISGLRSEDEADYYCQSYDASTVVFGGGTKLTVLGQPKAAPSVTLFPPSSEELQANKATLVCLISDFYPGAVTVAWKADSSPVKAGVETTTPSKQSNNKYAASSYLSLTPEQWKSHRSYSCQVTHEGSTVEKTVAPAECS
notes: IgG1 N297A-(GS)9-scFv
Regarding B3, in the assay with human BCMA-Fc protein, the “EC50 (read off the curve)” value was about 0.3 nM. Further, in assay [2], the “In vitro 4-1BB activation (reporter bioassay) with H929 cells, EC50” value came to 0.165 nM and the “In vitro 4-1BB activation (reporter bioassay) with MM1S cells, EC50” value is 1.98 nM. Moreover, in the assay with Recombinant Human BCMA [3], the Kd amounted to 22.6 nM, the koff amounted to 0.0119 s⁻¹ and the kon is 527000 M⁻¹ s⁻¹.

B4: AB41 (phage antibody clone) (other)
VH: QVQLQQSGAEVIKPGASVKLSCKASGYTFSSYWMHWVRQAPGQGLEWIGEINPGNGHTNYNEKFKSRATLTGDTSTSTVYMELSSLRSEDTAVYYCARSFTTARAFAYWGQGTLVTVSS
VL: DIVMTQSPAFLSVTPGEKVTITCRASQTISDYLHWYQQKPDQAPKLLIKYASQSISGIPSRFSGSGSGTDFTFTISSLEAEDAATYYCQDGHSFPPTFGQGTKLEIK
notes: Clone as selected by phage ELISA
As for B4, in assay [4], the binding result is on record as “binds”.

B5: 5A6 (phage antibody clone) (scFv, V domains shown)
VH: EVQLLESGGGLVQPGGSLRLSCAASGFTFSNYGVHWVRQAPGKGLEWVSYISYSGGTYYNPSLKSRFTISRDNSKNTLYLQMNSLRAEDTAVYYCARDSDDFGFDYWGQGTLVTVSS
VL: QSVLTQPPSASGTPGQRVTISCQGDSLRSYYVNWYQQLPGTAPKLLIYDHSKRPTGVPDRFSGSKSGTSASLAISGLRSEDEADYYCQSYDSSTVVFGGGTKLTVL
Take B5: the binding result with Recombinant Human BCMA [1] is listed as “binds”.
